Columns and labels:
[1] = molecular target: T1, quenched fluorogenic peptide of the human CD28 stalk region (WT)
T1 chain: KGKHLSPSPLFPGPSKPE

[2] = molecular target: T2, L145K mutated biotinylated and Myc tagged human CD28 stalk region dimeric peptide
T2 chain: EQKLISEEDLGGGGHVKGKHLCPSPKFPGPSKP

[3] = molecular target: quenched fluorogenic peptide of the human CD28 stalk region with L145K
[4] = molecular target: T3, c-Myc conjugated and biotinylated human CD28 stalk region dimeric peptide (wild-type)
T3 chain: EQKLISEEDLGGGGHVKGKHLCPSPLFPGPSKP

B1: Recombinant human ADAM-10 (protein)
chain: TTSAEKNTCQLYIQTDHLFFKYYGTREAVIAQISSHVKAIDTIYQTTDFSGIRNISFMVKRIRINTTADEKDPTNPFRFPNIGVEKFLELNSEQNHDDYCLAYVFTDRDFDDGVLGLAWVGAPSGSSGGICEKSKLYSDGKKKSLNTGIITVQNYGSHVPPKVSHITFAHEVGHNFGSPHDSGTECTPGESKNLGQKENGNYIMYARATSGDKLNNNKFSLCSIRNISQVLEKKRNNCFVESGQPICGNGMVEQGEECDCGYSDQCKDECCFDANQPEGRKCKLKPGKQCSPSQGPCCTAQCAFKSKSEKCRDDSDCAREGICNGFTALCPASDPKPNFTDCNRHTQVCINGQCAGSICEKYGLEECTCASSDGKDDKELCHVCCMKKMDPSTCASTGSVQWSRHFSGRTITLQPGSPCNDFRGYCDVFMRCRLVDADGPLARLKKAIFSPELYENIAE
fluorescence from cleavage of quenched fluorogenic peptide [1]: ADAM-10 and ADAM-17 did not

B2: Recombinant human MMP-2 (protein)
chain: YNFFPRKPKWDKNQITYRIIGYTPDLDPETVDDAFARAFQVWSDVTPLRFSRIHDGEADIMINFGRWEHGDGYPFDGKDGLLAHAFAPGTGVGGDSHFDDDELWTLGEGQVVRVKYGNADGEYCKFPFLFNGKEYNSCTDTGRSDGFLWCSTTYNFEKDGKYGFCPHEALFTMGGNAEGQPCKFPFRFQGTSYDSCTTEGRTDGYRWCGTTEDYDRDKKYGFCPETAMSTVGGNSEGAPCVFPFTFLGNKYESCTSAGRSDGKMWCATTANYDDDRKWGFCPDQGYSLFLVAAHEFGHAMGLEHSQDPGALMAPIYTYTKNFRLSQDDIKGIQELYGASPDIDLGTGPTPTLGPVTPEICKQDIVFDGIAQIRGEIFFFKDRFIWRTVTPRDKPMGPLLVATFWPELPEKIDAVYEAPQEEKAVFFAGNEYWIYSASTLERGYPKPLTSLGLPPDVQRVDAAFNWSKNKKTYIFAGDKFWRYNEVKKKMDPGFPKLIADAWNAIPDNLDAVVDLQGGGHSYFFKGAYYLKLENQSLKSVKFGSIKSDWLGC
fluorescence from cleavage of quenched fluorogenic peptide [1]: MMP-2 cleaves the stalk domain peptide | fluorescence from cleavage of quenched fluorogenic peptide (2.5 µM peptide, 30 ng enzyme) [1]: both enzymes efficiently cleaved the WT peptide | fluorescence from cleavage of quenched fluorogenic peptide, titration of protease [1]: the cleavage of the peptide was dose dependent | percent of peptide cleaved (intact peptide by anti-Myc ELISA, 25 and 50 ng enzyme, 5 hours) [2]: the mutated peptide was not substantially cleaved (<5%) by either MMP-2 or MMP-13 | fluorescence from cleavage of quenched fluorogenic peptide (2.5 µM peptide, 30 ng enzyme) [3]: both were completely incapable of cleaving the mutant peptide | intact peptide by anti-Myc ELISA (25 and 50 ng enzyme, 5 hours) [4]: the WT peptide was cleaved in a dose dependent manner

— patent publication US20260209355
